Results reported in US8273855.

Columns and labels:
Test in all cases: cell-based or functional assay
[1] = target: Notch1 of mouse neural stem cells (NSCs) (mouse) (UniProt Q01705)
[2] = target: myc-tagged full-length mouse Notch1 on transfected OLN cells (mouse) (UniProt Q01705)
[3] = target: Notch on primary rat oligodendrocytes and oligodendrocyte precursor cells (rat) (UniProt Q07008)
Sequence of Notch on primary rat oligodendrocytes and oligodendrocyte precursor cells (rat) (Q07008 19-2531): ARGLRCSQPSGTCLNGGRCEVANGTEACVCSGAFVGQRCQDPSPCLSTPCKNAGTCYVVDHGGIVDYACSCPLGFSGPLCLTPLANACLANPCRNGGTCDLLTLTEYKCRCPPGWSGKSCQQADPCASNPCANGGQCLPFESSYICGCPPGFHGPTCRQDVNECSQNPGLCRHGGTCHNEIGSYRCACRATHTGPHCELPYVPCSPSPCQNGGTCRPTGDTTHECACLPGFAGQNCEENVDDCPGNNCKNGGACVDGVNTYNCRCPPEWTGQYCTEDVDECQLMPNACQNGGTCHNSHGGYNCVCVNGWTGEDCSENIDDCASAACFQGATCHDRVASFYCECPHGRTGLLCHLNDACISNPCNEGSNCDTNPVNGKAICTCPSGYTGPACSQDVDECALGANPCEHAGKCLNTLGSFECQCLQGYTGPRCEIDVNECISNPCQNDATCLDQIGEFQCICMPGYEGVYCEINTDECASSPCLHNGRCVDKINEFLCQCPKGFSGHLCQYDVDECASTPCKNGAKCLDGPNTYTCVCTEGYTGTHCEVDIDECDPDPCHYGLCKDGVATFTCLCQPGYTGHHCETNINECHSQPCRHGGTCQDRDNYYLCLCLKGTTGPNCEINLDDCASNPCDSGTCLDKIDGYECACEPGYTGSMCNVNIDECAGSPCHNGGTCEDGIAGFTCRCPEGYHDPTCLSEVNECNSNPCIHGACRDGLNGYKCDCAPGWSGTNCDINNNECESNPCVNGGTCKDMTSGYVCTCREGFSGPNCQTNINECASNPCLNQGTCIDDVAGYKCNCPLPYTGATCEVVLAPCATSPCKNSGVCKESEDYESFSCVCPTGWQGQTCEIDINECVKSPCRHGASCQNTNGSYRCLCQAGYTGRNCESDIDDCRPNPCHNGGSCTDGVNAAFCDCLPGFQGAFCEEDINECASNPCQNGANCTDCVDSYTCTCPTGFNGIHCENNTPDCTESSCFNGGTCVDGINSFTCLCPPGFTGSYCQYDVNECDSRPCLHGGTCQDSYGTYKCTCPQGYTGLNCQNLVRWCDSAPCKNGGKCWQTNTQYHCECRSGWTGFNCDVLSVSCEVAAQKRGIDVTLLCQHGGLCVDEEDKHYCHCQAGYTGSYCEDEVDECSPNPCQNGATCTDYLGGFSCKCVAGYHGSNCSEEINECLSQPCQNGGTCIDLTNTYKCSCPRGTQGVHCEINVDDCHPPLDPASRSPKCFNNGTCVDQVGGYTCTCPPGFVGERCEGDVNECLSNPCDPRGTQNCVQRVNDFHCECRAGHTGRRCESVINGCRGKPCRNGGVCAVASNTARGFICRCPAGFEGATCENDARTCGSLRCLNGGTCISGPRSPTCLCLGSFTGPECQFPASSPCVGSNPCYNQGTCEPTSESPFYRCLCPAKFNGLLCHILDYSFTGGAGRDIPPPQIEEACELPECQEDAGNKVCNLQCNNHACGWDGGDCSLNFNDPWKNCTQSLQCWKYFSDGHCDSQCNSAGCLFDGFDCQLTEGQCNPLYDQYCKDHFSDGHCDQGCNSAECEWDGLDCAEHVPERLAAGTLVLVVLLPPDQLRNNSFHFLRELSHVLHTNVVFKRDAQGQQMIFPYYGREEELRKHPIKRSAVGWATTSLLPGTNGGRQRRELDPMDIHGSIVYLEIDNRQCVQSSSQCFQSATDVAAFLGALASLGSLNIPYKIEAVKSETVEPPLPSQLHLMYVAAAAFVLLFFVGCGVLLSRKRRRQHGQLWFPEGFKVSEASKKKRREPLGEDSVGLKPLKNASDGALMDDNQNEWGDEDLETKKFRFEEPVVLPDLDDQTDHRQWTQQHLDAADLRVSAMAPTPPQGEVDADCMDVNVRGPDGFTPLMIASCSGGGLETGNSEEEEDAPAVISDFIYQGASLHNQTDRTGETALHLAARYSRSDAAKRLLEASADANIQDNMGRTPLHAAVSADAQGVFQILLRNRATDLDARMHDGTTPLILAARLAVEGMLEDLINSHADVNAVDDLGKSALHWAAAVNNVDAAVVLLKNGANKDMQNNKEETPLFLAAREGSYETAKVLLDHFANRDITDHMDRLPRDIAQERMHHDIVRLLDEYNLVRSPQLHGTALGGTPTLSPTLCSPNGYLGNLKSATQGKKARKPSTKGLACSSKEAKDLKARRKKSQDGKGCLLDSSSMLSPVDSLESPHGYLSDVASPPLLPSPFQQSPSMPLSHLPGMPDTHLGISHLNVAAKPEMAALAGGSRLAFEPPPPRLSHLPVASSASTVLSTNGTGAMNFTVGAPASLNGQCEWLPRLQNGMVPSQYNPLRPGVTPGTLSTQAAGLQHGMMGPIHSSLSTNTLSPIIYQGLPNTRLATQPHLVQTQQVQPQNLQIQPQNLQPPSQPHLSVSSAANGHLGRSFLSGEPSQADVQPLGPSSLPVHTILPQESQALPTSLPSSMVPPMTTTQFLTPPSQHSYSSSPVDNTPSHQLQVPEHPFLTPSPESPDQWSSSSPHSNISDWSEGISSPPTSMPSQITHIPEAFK

Sequence of Notch1 of mouse neural stem cells (NSCs) (mouse) (Q01705 19-2531 limits assumed): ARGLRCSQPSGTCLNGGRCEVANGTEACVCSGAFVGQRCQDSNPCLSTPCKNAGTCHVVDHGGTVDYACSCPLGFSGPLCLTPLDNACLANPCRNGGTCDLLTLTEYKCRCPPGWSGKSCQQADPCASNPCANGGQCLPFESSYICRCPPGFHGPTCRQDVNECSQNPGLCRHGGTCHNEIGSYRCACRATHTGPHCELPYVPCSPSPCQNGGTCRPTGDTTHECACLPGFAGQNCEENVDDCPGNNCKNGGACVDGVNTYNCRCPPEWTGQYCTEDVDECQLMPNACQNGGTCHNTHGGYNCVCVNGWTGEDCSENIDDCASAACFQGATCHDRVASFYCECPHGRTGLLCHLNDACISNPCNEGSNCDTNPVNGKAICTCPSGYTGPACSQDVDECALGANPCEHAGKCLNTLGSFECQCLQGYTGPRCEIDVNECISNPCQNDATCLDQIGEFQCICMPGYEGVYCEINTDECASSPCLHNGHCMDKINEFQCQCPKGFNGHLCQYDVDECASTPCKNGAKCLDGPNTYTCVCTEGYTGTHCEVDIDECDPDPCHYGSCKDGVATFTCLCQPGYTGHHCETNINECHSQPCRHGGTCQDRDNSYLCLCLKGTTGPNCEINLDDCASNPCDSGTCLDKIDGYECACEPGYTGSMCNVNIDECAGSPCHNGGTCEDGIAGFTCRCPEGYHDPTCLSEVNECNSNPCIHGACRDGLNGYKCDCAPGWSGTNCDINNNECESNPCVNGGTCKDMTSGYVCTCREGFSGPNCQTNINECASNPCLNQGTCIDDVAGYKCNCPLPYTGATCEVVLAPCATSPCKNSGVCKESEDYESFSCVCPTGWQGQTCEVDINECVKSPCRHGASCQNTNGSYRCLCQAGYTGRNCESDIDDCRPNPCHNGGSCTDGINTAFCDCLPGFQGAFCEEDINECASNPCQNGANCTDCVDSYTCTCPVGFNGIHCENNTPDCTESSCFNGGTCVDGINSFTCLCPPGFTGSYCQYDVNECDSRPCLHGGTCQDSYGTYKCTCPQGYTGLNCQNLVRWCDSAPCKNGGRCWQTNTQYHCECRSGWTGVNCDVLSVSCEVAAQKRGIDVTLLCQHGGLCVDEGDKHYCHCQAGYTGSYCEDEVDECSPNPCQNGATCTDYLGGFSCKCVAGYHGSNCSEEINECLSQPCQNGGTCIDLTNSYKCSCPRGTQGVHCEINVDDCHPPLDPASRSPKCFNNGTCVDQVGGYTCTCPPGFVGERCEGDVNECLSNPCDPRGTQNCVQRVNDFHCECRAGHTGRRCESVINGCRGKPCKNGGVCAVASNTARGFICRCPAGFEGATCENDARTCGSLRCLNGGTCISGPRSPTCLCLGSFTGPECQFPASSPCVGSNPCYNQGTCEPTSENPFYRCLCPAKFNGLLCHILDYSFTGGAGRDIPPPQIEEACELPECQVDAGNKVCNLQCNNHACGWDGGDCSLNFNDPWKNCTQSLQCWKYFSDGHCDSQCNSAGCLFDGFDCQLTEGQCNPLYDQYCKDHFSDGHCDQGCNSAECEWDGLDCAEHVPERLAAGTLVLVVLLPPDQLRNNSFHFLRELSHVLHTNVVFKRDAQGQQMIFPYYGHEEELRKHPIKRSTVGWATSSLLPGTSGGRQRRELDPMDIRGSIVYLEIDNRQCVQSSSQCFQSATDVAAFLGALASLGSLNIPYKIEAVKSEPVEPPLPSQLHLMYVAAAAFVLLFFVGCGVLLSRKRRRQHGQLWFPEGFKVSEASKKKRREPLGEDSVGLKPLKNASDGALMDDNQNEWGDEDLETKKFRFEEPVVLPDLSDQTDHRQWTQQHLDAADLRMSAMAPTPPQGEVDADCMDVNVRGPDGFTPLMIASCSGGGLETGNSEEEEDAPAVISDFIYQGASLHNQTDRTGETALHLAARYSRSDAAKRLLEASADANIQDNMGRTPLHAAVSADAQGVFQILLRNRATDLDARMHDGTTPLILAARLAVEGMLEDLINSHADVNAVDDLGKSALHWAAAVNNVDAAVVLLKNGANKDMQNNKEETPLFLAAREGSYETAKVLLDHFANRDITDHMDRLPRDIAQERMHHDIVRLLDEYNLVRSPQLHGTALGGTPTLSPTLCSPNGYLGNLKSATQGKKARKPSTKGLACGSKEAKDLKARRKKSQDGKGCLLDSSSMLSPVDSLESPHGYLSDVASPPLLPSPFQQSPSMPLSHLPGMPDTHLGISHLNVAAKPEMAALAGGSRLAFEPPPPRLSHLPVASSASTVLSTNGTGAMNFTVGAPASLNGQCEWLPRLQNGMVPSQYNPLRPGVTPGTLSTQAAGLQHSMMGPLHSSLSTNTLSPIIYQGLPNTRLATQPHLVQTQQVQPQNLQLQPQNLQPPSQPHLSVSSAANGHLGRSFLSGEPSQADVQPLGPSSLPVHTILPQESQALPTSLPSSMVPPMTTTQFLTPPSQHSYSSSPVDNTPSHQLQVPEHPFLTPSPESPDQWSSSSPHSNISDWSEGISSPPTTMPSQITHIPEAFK
Sequence of myc-tagged full-length mouse Notch1 on transfected OLN cells (mouse) (Q01705 19-2531): as the sequence (Q01705 19-2531 limits assumed) above

OL generation from NSCs, flow cytometry [1]: 2 fold
MAG staining intensity [2]: 2.5 fold
MAG transcripts, real-time PCR, primary OLs [3]: 24 fold
OPC differentiation into CNPase-positive OLs [3]: 75%
Substance: NB-3 (recombinant protein, as substrate or soluble; tag not stated at these places) (from UniProt P97528 20-999) (ligand)
